In publication PMC11526878:

Target: ryanodine receptor 1 (RyR1) purified from rabbit skeletal muscle (rabbit) (UniProt P11716)
Assay: cryo-EM structure

Sequence of ryanodine receptor 1 (RyR1) purified from rabbit skeletal muscle, P11716 1-5037 (P11716 whole entry): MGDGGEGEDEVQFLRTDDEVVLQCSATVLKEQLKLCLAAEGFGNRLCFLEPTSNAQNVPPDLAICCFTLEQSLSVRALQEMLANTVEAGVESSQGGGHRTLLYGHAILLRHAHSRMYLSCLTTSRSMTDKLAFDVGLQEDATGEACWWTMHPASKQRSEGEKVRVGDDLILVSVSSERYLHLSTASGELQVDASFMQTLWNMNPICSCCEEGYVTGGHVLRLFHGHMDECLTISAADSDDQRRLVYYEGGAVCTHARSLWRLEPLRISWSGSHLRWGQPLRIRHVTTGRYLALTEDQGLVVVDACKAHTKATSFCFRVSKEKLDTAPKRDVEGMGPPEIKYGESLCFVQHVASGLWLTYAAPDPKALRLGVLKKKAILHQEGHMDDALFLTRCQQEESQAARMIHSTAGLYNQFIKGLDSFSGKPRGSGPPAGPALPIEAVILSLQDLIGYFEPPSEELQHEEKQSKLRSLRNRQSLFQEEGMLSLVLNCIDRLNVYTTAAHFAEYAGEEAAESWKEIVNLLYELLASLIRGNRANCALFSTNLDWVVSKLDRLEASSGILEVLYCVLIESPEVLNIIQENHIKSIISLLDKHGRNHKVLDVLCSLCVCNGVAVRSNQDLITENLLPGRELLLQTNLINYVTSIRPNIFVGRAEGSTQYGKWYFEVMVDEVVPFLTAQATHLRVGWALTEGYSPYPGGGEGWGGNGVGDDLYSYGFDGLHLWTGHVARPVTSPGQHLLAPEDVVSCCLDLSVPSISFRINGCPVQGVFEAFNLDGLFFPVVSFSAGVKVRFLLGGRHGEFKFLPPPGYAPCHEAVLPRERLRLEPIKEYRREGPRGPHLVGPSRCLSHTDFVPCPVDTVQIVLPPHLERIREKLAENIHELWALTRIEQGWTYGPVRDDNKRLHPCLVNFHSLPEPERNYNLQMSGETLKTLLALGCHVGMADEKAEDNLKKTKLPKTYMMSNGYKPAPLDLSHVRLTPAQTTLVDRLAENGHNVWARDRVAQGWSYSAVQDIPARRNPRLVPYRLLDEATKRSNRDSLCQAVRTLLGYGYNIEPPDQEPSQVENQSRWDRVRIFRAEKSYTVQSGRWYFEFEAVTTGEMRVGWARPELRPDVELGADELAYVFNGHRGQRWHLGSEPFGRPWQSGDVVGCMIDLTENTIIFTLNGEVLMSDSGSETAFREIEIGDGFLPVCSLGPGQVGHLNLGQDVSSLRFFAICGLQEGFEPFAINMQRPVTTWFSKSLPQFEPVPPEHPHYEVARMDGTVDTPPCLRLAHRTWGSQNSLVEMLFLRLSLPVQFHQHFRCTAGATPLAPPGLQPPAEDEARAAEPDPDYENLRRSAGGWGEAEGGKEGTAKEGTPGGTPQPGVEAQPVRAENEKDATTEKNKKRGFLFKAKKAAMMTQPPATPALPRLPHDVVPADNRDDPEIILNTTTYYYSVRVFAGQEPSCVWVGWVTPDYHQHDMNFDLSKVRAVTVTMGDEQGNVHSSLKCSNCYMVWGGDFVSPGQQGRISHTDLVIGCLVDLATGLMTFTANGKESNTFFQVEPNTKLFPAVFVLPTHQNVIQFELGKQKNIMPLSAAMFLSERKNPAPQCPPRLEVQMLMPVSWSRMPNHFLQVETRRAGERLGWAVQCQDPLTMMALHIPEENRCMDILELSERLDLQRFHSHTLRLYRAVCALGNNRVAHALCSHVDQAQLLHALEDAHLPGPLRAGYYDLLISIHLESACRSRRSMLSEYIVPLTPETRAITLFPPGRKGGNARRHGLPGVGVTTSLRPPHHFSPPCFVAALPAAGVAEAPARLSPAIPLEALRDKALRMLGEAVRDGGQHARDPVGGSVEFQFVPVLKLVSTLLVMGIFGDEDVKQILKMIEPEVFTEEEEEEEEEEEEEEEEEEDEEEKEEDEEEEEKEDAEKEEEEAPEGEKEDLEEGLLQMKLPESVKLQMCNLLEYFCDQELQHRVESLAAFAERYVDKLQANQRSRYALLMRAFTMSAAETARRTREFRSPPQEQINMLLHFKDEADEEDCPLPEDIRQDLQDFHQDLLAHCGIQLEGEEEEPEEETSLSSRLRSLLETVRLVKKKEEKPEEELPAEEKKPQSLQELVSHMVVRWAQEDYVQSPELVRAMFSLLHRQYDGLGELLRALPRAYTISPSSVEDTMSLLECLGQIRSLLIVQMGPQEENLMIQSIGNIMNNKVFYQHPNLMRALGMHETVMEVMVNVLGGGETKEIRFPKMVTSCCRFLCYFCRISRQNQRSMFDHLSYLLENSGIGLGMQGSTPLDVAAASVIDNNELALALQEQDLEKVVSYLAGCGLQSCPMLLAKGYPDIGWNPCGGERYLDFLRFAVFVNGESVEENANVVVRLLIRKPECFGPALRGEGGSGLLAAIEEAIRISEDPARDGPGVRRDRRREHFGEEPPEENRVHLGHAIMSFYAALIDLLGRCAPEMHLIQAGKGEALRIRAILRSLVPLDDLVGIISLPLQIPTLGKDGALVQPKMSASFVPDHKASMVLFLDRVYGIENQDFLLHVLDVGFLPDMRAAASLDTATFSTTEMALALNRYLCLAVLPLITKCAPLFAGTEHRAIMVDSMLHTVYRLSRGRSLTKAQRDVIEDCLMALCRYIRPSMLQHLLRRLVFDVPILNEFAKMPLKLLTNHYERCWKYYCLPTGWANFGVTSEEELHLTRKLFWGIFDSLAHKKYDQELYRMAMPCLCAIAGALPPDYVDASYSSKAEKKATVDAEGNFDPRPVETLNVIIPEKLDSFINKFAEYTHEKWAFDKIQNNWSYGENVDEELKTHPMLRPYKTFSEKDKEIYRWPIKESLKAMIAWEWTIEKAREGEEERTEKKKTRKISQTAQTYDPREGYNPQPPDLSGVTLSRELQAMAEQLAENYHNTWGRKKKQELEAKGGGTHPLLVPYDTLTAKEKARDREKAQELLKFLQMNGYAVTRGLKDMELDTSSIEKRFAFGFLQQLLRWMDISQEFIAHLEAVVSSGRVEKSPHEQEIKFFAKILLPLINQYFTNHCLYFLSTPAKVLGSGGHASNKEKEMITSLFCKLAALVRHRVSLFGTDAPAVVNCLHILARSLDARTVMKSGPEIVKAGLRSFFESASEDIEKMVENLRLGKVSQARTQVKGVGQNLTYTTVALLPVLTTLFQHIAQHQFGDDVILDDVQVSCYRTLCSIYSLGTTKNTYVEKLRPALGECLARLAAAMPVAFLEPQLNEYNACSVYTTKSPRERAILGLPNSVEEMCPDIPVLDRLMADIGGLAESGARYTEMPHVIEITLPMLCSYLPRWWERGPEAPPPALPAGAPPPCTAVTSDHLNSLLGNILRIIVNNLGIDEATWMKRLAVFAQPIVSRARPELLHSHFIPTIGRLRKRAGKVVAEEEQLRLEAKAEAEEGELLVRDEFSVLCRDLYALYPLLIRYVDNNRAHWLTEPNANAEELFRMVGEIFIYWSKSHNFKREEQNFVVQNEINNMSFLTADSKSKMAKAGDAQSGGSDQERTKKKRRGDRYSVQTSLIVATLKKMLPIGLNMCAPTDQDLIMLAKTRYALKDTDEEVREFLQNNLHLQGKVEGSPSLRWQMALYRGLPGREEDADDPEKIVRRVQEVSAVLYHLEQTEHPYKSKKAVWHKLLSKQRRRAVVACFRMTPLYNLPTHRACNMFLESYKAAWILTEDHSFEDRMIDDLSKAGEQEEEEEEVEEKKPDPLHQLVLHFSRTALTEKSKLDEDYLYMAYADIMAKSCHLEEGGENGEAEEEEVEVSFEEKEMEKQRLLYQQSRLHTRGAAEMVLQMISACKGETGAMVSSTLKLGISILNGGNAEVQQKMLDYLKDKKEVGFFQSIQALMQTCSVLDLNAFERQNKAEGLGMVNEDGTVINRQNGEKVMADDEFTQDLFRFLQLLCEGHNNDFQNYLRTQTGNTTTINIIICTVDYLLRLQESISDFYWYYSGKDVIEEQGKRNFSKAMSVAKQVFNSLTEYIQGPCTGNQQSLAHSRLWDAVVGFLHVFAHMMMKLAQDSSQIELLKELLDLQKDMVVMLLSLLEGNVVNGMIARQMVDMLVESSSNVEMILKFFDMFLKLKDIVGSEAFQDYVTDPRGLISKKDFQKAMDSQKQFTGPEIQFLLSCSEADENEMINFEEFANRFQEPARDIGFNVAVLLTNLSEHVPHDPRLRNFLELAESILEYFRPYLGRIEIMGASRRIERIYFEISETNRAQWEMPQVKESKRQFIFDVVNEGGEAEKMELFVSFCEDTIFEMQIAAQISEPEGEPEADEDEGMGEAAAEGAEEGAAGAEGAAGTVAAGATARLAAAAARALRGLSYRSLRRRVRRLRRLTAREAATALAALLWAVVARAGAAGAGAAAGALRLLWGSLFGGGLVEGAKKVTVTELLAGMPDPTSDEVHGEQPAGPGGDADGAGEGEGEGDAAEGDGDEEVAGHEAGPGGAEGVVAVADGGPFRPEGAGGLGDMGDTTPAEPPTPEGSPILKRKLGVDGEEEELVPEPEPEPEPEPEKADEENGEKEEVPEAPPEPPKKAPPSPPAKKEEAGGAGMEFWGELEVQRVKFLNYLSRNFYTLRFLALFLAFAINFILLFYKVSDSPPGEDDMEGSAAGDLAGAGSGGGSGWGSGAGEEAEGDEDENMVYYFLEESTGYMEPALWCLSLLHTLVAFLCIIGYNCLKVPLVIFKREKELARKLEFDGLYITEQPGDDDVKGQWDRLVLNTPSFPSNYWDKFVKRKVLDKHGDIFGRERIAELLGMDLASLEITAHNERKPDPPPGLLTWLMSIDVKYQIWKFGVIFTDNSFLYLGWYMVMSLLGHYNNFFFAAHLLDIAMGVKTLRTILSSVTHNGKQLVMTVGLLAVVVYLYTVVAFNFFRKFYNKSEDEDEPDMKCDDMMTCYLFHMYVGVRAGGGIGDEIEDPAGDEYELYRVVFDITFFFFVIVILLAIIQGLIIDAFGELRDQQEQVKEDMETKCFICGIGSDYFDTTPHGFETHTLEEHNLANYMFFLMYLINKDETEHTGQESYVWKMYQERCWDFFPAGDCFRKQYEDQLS

stoichiometry N: 4
Substance: ryanodine receptor 1 (RyR1) purified from rabbit skeletal muscle, P11716 1-5037
